A value given as a limit tells only on which side of the number the result lay.

Assay [1] deals with gp41 bait of pBT3-SUC-gp41 (ectodomain and transmembrane region of gp41, HIV-1 Env aa 534-709). As to the kind of experiment: split-ubiquitin yeast two-hybrid, β-galactosidase activity assay. The conditions noted are these: yeast NMY51, three independent yeast colonies, parent: est. 39, read off a plot.
The next assay deals with SP-gp41-CFP (HIV-1). As to the kind of experiment: FRET or BRET; acceptor photobleaching FRET in HEK293T cells 24 h after transfection; donor SP-gp41-CFP, acceptor CD63-YFP; 514 nm bleaching. (Bioluminescence resonance energy transfer reports proximity on the nanometre scale.)

On to “CD63 TM4LEL (aa 108-238), single membrane spanning prey (from UniProt P08962) C145A; C146A”, for which, in assay [1], the response came out at 11 Miller units.

As to “CD63 TM4LEL (aa 108-238), single membrane spanning prey (from UniProt P08962) C169A; C170A”, in assay [1], the response was 30 Miller units.

On to “CD63 TM4LEL (aa 108-238), single membrane spanning prey (from UniProt P08962) C177A”, for which, in assay [1], the response is 25 Miller units.

“CD63 TM4LEL (aa 108-238), single membrane spanning prey (from UniProt P08962) C191A”: in assay [1], the response was found to be 17 Miller units.

“CD63_(C145A,C146A)-YFP (from UniProt P08962 1-238) (natural protein)” had a reduction of FRET efficiency against CD63-YFP as acceptor with SP-gp41-CFP (HIV-1) below 58%.

(Values after paper PMC8113602.)
